The target of this assay is T1, MHC class II I-A^b molecules purified by affinity chromatography (;mouse, UniProt P14434 24-218; P14483 28-226).
T1 MHC II alpha: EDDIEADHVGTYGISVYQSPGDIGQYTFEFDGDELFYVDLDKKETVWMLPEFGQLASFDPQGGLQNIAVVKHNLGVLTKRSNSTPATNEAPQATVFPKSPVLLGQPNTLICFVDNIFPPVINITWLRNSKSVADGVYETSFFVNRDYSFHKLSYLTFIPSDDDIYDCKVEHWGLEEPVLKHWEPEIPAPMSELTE
T1 MHC II beta: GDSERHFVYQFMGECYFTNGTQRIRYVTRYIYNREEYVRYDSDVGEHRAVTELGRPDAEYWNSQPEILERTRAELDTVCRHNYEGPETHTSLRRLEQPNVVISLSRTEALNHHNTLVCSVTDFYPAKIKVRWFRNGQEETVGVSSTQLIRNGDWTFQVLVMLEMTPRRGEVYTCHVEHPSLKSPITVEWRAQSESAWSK
In words: competitive peptide binding assay on purified I-Ab.

The source of these data is patent US20250052751A1 (published 2025).

What is called IC50 is the concentration needed to halve the response being measured. Low values mean inhibition by little substance, high ones a need for much substance.

As for HLFAINYTGASMNPARSFGP [AQP4 201-220], the concentration for half-maximal inhibition (IC50) is 28 nM.

VAFKGVWTQAFW [AQP4 p24-35] returned a half-maximal inhibitory concentration (IC50) of 4880 nM. For LFAINYTGASMNPARSF [AQP4 p202-218], the IC50 stood at 16 nM. The figure for GILYLVTPPSVVGGLGVTMV [AQP4 131-150] is 112 nM; for LYLVTPPSVVGGLGVT [AQP4 p133-149] it is 184 nM.
